Patent US5780289

Target: E. acervulina merozoite antigen (whole merozoites coated on the plate, or sonicated merozoites)

**Q.** Which 3H-thymidine incorporation in Dcpm does the source give for “peripheral blood leucocytes of chickens immunised with purified Eam20 (cells without a defined receptor)” here?
**A.** 922 Dcpm

**Q.** Which 3H-thymidine incorporation in Dcpm does the source give for “peripheral blood leucocytes of chickens immunised with purified Eam45 (cells without a defined receptor)” here?
**A.** 716 Dcpm

**Q.** For “peripheral blood leucocytes of chickens immunised with purified Eam100 (cells without a defined receptor)”, which 3H-thymidine incorporation in Dcpm is on record?
**A.** 1190 Dcpm

**Q.** “peripheral blood leucocytes of chickens immunised with purified Eam200 (cells without a defined receptor)” was tested. Which 3H-thymidine incorporation in Dcpm did it give?
**A.** 692 Dcpm

**Q.** With “peripheral blood leucocytes of control chickens (cells without a defined receptor)” as the substance, how does the 3H-thymidine incorporation in Dcpm read?
**A.** 14 Dcpm
